Values of other authors as cited in US5474978A, “Insulin analog formulations” (Eli Lilly and Company, priority 1994, dated 1995).

Conditions: compared with Zn-insulin

Substance	Zn-induced association
Ala^B28 Pro^B29 -hI	little or no Zn-induced association
Ala^B28 insulin	demonstrate Zn-induced association, but less than Zn-insulin
Asp^B28 Pro^B29 -hI	little or no Zn-induced association
Asp^B28 insulin	demonstrate Zn-induced association, but less than Zn-insulin
Lys^B28 insulin	demonstrate Zn-induced association, but less than Zn-insulin
Pro^B29 insulin	demonstrate Zn-induced association, but less than Zn-insulin
